Measured values taken from the DeepSol protein solubility set.

Test: soluble on expression in E. coli; label from the status in PepcDB or PDB records

Sequence	soluble on expression in E. coli
MEKIGETMAKLGQNTRVNSDQLIQTILADPEVASFISQHHLSQEQINLSLSKFNQFLVERQKYQLKDPSYIAKGYQPILAMNEGYADVSYLETKELVEAQKQAAISERIQLVSLPKSYRHIHLSDIDVNNASRMEAFSAILDFVEQYPSAEQKGLYLYGDMGIGKSYLLAAMAHELSEKKGVSTTLLHFPSFAIDVKNAISNGSVKEEIDAVKNVPVLILDDIGAEQATSWVRDEVLQVILQYRMLEELPTFFTSNYSFADLERKWATIKGSDETWQAKRVMERVRYLAREFHLEGANRRLEHHHHHH	soluble
MKFGWVNVIGDNWEEKKKIVTTALESSIPVVVAEPEDIEKIKELGNIKVASHSLDADIVLVNKNDNIEFLKEAKNLGKETAIYIPIESKEDEEFASEVARFGFVDNIILEGRDWTIIPLENLIADLFHRDVKIVASVNSVDEAKVAYEILEKGTDGVLLNPKNLEDIKELSKLIEEMNKEKVALDVATVTKVEPIGSGDRVCIDTCSLMKIGEGMLIGSYSRALFLVHSETVENPYVATRPFRVNAGPVHAYILCPGNKTKYLSELKAGDKVLIVDKDGNTREAIVGRVKIERRPLVLIEAEYKGDIIRTILQNAETIRLVNEKGEPISVVDLKPGDKVLIKPEEYARHFGMAIKETIIEKLEHHHHHH	soluble
MVEGKVTLRLRYTKTGAMRFLSHLEMIGLFTRAVGRSRIPIRFSRGFHPHPKFSFATALSVGVESWAEYLDMELFPGADPTDIGTRLNGALPEGVRIVEASVIPPGSPSLSVIMDKVRYRVTLPPEAAVGLPELAAAFLARESVPLRREKKGRVLEHHHHHH	soluble
MSLTALMVGTGRGAKMGILIKNGEVLEAVNDVQTVVFDKTGTLTVGKPQVTDIIGDSKQVLRIAASLEDSSEHPLAAAILAKAKADNISTLPVENFTAIEGKGVAATISGQQGVVGNQKLLGDLTFNKQLQQQETRLQNEAKTVVFVGLDDRIIGLIAIQDAPKPTSKEAIAALRARGLRTVMLTGDNQRVAQAVAQQIGIDEVIADVLPGDKAAQIKQFQHDEGHHHHHH	soluble
DPIGHLNKLPVAVVNSDTGVTKEGKTINAGEQITHSLVDQQQAKFIEVSADQARKGIADGTYYFAIEFPTDFSQAATSVKDPQPHQAKLNAVYNNANGFLATMLGNQVVGRVLAAVNENLGSQVANQLLVGFNTIGQGLGAAADGAGQLADGSHKAHDGADKLADGSTQLNNGLQQANDGAHKLYDGAGQLDQGIHTASNGADALADGLTKLNAATDTLGNGAGQVSAGVDKLVGVAQQASDAQAQLTVPLVNLSAQLRATGIPQAIDLANSADGIINSINAAGIGPQSDMMTQLSKLRNGASEIHRQLSDPTAQYRAGINSATEGAQKLSTGLHQLSDGSEKLVIGTKTLADGTTKLSAGSQQLTVGASQLSSGLVRLDEGASELSLKLGESKDKIPQFPDDTIADSARNVSTPVAENVARDSLS	not soluble
MECLKAEFFSPIALFKTPFSIKGIETYPLPPYSTVIGLLYTASGKKWKGERFNISVQGDYEAIFRDYVRFRKYNKKDKKLETLPLEVPLFYNFRLTVHILGDENLLKEFEKALKFPYVFPYLSGGEYPVKITKVKMVACRKEYFDTFNIPKNAYIPENIFTEEFRVSLEGHGVYYRVPSFLISQKPRQHEWVGVYYVQKGTKVSEMELLVDEEGEPVWV	soluble
VDQFISPEQLQGVIYTDGELQADEMTLEIAELLQSAGPWGQHFPEPLFEGQCRILQQRILAGKHLKLMIQFNDRFELYDAIWFNVDLRTFPDLSIKHAQIVYKLDINEFRGNKNIQLRVESLIPL	not soluble
SNAMPKRSKEDTEITIQKIMDAVVDQLLRLGYDKMSYTTLSQQTGVSRTGISHHFPKKTDFTAALDGRIFKMFIEHLEFEKGLDAFSQSWIKALEDSEFLAILRLLFHHIVTSESAHEFAANGIDRLYKMVESQFGSGGDKELEWLIGRSLIQMSK	soluble
MSILNDYKRKTEGSVFWAQRARSVMPDGVTADTRAFDPHGLFISDAQGVHKTDVDGNVYLDFFGGHGALVLGHGHPRVNAAIAEALSHGVQYAASHPLEVRWAERIVAAFPSIRKLRFTGSGTETTLLALRVARAFTGRRMILRFEGHYHGWHDFSASGYNSHFDGQPAPGVLPETTANTLLIRPDDIEGMREVFANHGSDIAAFIAEPVGSHFGVTPVSDSFLREGAELARQYGALFILDEVISGFRVGNHGMQALLDVQPDLTCLAKASAGGLPGGILGGREDVMGVLSRGSDRKVLHQGTFTGNPITAAAAIAAIDTILEDDVCAKINDLGQFAREAMNHLFARKGLNWLAYGRFSGFHLMPGLPPNTTDTGSITRAEVARPDVKMIAAMRMALILEGVDIGGRGSVFLSAQHEREHVEHLVTTFDRVLDRLADENLLSWQGTNLSGNQS	soluble
KDFLNPKYTLENFIVGEGNRLAYEVVKEALENLGSLYNPIFIYGSVGTGKTHLLQAAGNEAKKRGYRVIYSSADDFAQAMVEHLKKGTINEFRNMYKSVDLLLLDDVQFLSGKERTQIEFFHIFNTLYLLEKQIILASDRHPQKLDGVSDRLVSRFEGGILVEIELDNKTRFKIIKEKLKEFNLELRKEVIDYLLENTKNVREIEGKIKLIKLKGFEGLERKERKERDKLMQIVEFVANYYAVKVEDILSDKRNKRTSEARKIAMYLCRKVCSASLIEIARAFKRKDHTTVIHAIRSVEEEKKKDRKFKHLVGFLEKQAFDKIC	soluble
MLEKYGRCRKRRLLKEVVLILLVAAVQPVLSSSKSTPEAQLTDVELTCPDDWIRHGTKCYLPFNIHQSWPFAMTTCQRYGSTLAKIQTGSENQFIASLLSKPGKPTEGKEYWIGLTVEVLDDDELYLWSDGTPTSRYVGFWRQDQPNFLNGSCALGKVERKDLEWRLDTCNLLRRFVCERPACVQGSYFCSSGSCISESKKCNGHNDCDDGSDEQNCPSAFQPNCRTYEKGESGQLSSTNYPNSYDPNLNCRHVLEGPINSRIELTIEHFETEPDFDILTVLDGGPAENSTTVIKRLSGSMETVQTITSATNMMIVQFRTDAQSNARGWQLKWRAVPFTCGGHFTAQAYIQSFVSPGYPKTFANGAECVWTVESTPGQVVSLIMKSGKTWG	not soluble
MINMKFFNRVEEIKEILSILEEEPNLIYFIYGPINSGKTALINEIINNRLDKNKYVVFYIDLREIFISKYDEFEAKLRATKTFGFRLIIEVLFEEYEDDKKPIEIIRSLIKDAPSLCGIPTPKNTLEEILKKKTTKNVFKYITNILMDIKREGKQPIIIIDELQKIGDMKINGFLIYELFNYFVSLTKHKHLCHVFCLSSDSLFIERVYNEAMLKERVDYILVDDFDKETALKFIDFLSEEILNKKLSDEDKELIYSYVGGKPILIINVIGKLKHKNLKDVLNILLMDEISKLKDFLSNLDYIKPKVNIEEEIIEIRKEDIINALKLFKGKYEIEVDKIPKAVYVYLVKKNILFLYPQRGTLKPQSFLVWNAIKRVL	not soluble
GMECRPLCIDDLELVCRHREAMFREAGRDALTLAAMQDPFRDWLLPRLADGSYFGWVMEEGGAPLAGIGLMVIEWPPHPSHPLQDKRGYILNLYVDPSHRERGIGQALMNRAEAEFAERGIAFAVLHATEMGQPLYARMGWSPTTEMSKPIAG	soluble
MSLGSSDLPAHALVGYLHASFANGSGYTRMADVPDSWDVIDLAFGEPTSVTSGDIRFERCPVAECPNVESDAEFKAAIKAKQAAGKKVLISIGGQNGQVQLTSTAARDKFVSSVSAIIDEYGLDGLDIDFEGHSLSLNADDTDFKNPKTPVIVNLVSAVKTLKAKYGDGFVLTMAPETFFVQLGYQYYGTGKWGGQDPRAGAYLPVIHALRDDLTLLHVQDYNSGSIMGLDNQYHSMGGADFHIAMTDMLLTGFPVAGDANNVFPPLRPDQVAIGMPASTQAGNGHVSPAEVTKALNCLTKKTDCGSYATHGTWPDLRGLMTWSINWDRYSNWEFQKNFDAYFGEGHHHHHH	soluble
MRVKTGVVRRRRHKKVLKLARGFYSGRRKHFRKAKEQLERSMYYAFRDRKQKKREFRSLWVVRINAACRMHNTSYSRFMHALKVANIELDRKVLADMAMNDMQAFTSVLESVKEHLLEHHHHHH	soluble
MGSDKIHHHHHHMIEFDNLTYLHGKPQGTGLLKANPEDFVVVEDLGFEPDGEGEHILVRILKNGCNTRFVADALAKFLKIHAREVSFAGQKDKHAVTEQWLCARVPGKEMPDLSAFQLEGCQVLEYARHKRKLRLGALKGNAFTLVLREVSNRDDVEQRLIDICVKGVPNYFGAQRFGIGGSNLQGAQRWAQTNTPVRDRNKRSFWLSAARSALFNQIVAERLKKADVNQVVDGDALQLAGRGSWFVATTEELAELQRRVNDKELMITAALPGSGEWGTQREALAFEQAAVAAETELQALLVREKVEAARRAMLLYPQQLSWNWWDDVTVEIRFWLPAGSFATSVVRELINTTGDYAHIAE	not soluble
MALRLAVSSALRPALNSQVRNASSAVSVKDVLASAPQAEVTTLKNGFRVVTEDNGSATATVGVWIETGSRFENEKNNGVAHFLERLIHKGTGKRASAALESELNAIGAKLNSFTERDQTAVFVQAGAQDVEKVVDILADVLRNSKLEASTIDTERVNLLKELEASDDYHQLVLFDMLHAAGFQGTPLALSVLGTSESIPNISAQQLKEWQEDHYRPVRMVLSAVGGGVSNVSSLADKYFGDLSNEYPRKVPQVDGTRFTGSEYRYRNDNVPHMYAAFAVEGVGYAHKDALALQIANQFIGQWDVTHATSRTAASRLVQKIGHDHGVHNLQHFNINYKDTGLFGIYFVADAHDLNDTSGIMKSVAHEWKHLASAATEEEVAMAKNQFRTNLYQNLETNTQKAGFNAKELLYTGNLRQLSELEAQIQKVDAGAVREAISRHVYDRDLAAVGVGRTEAFPNYALTRAGMSWWRM	not soluble
MGSDKIHHHHHHMNRAREINYLNSIALHQPFGIVGVSGETGIGKTTVLNFVNPEGVFTVRVNISLRDSMESILYDLLHSLALSLEKVEEVSDLAKEVRKWITDEVSTIKGFSLGVSFGVNASLTHEKSIRPRFNFFKAREKLGELIKQTVQRKGKFLLIIDELDKEKKEDVLRVIDSIKNFIIMEDFVVILSLPFSIYREYAADRLRWNEAGNLENIFTDIVFVEPLKKLEIKELIIKRLGSYIELIEDGVLDIVADFSDGNPRDGLWILTKAIYDNIHKELLSKEDLINTINRTISEYTGLTLNLTENQKKAIRVLRGSVYSREKIIETLQKEGFKRTTAYSVMDQLLQKRILLVEKEGYRISGKFSYMEI	not soluble
MNKQRLITELQSKGLRLVDPNAKDLGRKGGAGPSDHRAVTVDGTTVMVPIYTSTAAASPYSINLASMPPKTVLSKGDEEIAAIALPRQPKFYDLKTADGIPYSHIALLHSNNVLATTVQQTCIRYRDESTVCQFCAIEKSLDAGRTITRKLPEQLAEVTEAAVRLDGIEQVIMTTGTPNSGDRGAAYLTKCAAAIKARVNIPIQAQCEPPDDFIWFERMKAAGVDSLGMHLEAVDPDVRAKIMPGKAEVPVSYYYEAYEAAVKVFGWGQVSTYLLAGLGDSFETLVEASEKLVNMGVYPFVVPFVPISETPLANHPAPDSDFMFALYQRVGTIIKQSQISSVDMKAGCAKCGACSALSTFAKLEHHHHHH	not soluble
